Reference: publication PMC11499264, “RNA m5C oxidation by TET2 regulates chromatin state and leukaemogenesis”

Biological target: T1, MBD6 MBD domain-MBP-His (Homo sapiens, UniProt Q96DN6 1-100)
T1 sequence: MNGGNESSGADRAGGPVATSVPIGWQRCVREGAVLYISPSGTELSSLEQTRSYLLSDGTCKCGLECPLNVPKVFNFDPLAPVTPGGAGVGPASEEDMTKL
Assay: EMSA; 0-100 uM protein; preferred over C and hm5C probes; 100 nM FAM probe, 20 mM HEPES pH 7.5, 40 mM KCl, 10 mM MgCl2, 0.1% Triton X-100, 10% glycerol, 1x RNaseOUT, on ice 30 min; 10% TBE gel, 0.5x TBE, 4 C
Conditions: protein: recombinant; tags: C-terminal MBP-6xHis; label: 5' 6-FAM; single strand

Does TATGACCTGCGGTATGACCTGCGGTATGACCTGCGG (ssDNA, 5-methyl-dC at positions 7, 19, 31) [p1-m5C (ss)] bind?
Result: binds
